According to patent publication US20060188503A1 (Genentech, published 2006):
Positions count from the first letter of the chain named. Names and notes keep the numbering of the source.

B1: LK-VRB-1s* (ligand)
chain: APMAEGGGQNHHEVVKFEDVLRRSSCHPIETLVDIFQEYPDEIEYIFKPSCVPLMRCGGCCNDEGLECVPTEESNITMQIMRIKPHQGQHIGEMSFLQHNKCECRPKKD
B2: LK-VRB-4s (ligand)
chain: B1 chain with F17I, L21F, R22E, S25I
notes: the codon printed for Y25I is CAC (His)
B3: LK-VRB-3s (ligand)
chain: B1 chain with F17I, L21F, R22K
B4: LK-VRB-19s (ligand)
chain: B1 chain with L21Y, D63S, G65M, L66R
B5: LK-VRB-24s (ligand)
chain: B1 chain with D63S, G65M
B6: LK-VRB-10s (ligand)
chain: B1 chain with E18M, L21Y, R22Q, D63S, G65M, L66R
B7: LK-VRB-14s (ligand)
chain: B1 chain with E18M, S25Y, D63S, G65M, L66R
B8: LK-VRB-9s (ligand)
chain: B1 chain with E18M, L21Y, S25Y, D63S, G65M, L66R
B9: LK-VRB-16s (ligand)
chain: B1 chain with E18M, L21Y, D63S, G65M, L66R
B10: LK-VRB-7s* (ligand)
chain: B1 chain with L21Y, R22Q, S25Y, D63S, G65M, L66R
B11: LK-VRB-25s (ligand)
chain: B1 chain with D63S, L66R
B12: LK-VRB-20s (ligand)
chain: B1 chain with E18M, D63S, G65M, L66R
B13: LK-VRB-21s (ligand)
chain: B1 chain with D63S
B14: LK-VRB-17s (ligand)
chain: B1 chain with S25Y, D63S, G65M, L66R
B15: LK-VRB-22s (ligand)
chain: B1 chain with G65M
B16: LK-VRB-12s (ligand)
chain: B1 chain with L21Y, S25Y, D63S, G65M, L66R
B17: LK-VRB-26s (ligand)
chain: B1 chain with G65M, L66R
B18: LK-VRB-11s (ligand)
chain: B1 chain with R22Q, S25Y, D63S, G65M, L66R
B19: LK-VRB-8s* (ligand)
chain: B1 chain with E18M, R22Q, S25Y, D63S, G65M, L66R
notes: 'Y2IL' read as Y21L (codon CTC)
B20: LK-VRB-15s (ligand)
chain: B1 chain with E18M, R22Q, D63S, G65M, L66R
B21: LK-VRB-13s (ligand)
chain: B1 chain with L21Y, R22Q, D63S, G65M, L66R
B22: LK-VRB-23s (ligand)
chain: B1 chain with L66R
B23: Native VEGF (8-109) (ligand)
chain: GQNHHEVVKFMDVYQRSYCHPIETLVDIFQEYPDEIEYIFKPSCVPLMRCGGCCNDEGLECVPTEESNITMQIMRIKPHQGQHIGEMSFLQHNKCECRPKKD

Molecular target: KDR receptor with a gD tag at the N-terminus, on CHO cells (UniProt P35968 20-1356)
Test: cell-based or functional assay

Phosphorylation-Inducing Activity (KIRA), ratio to native VEGF (8-109) [fold] | Binder
0.5 | B1
0.5 | B2
1 | B3

Molecular target: FLT-1 Receptor (RIA of Example 11) (UniProt P17948 27-758, limits assumed)
Test: RIA, essentially as in Muller et al. 1997

FLT-1 Receptor (RIA of Example 11), sequence (P17948 27-758 limits assumed): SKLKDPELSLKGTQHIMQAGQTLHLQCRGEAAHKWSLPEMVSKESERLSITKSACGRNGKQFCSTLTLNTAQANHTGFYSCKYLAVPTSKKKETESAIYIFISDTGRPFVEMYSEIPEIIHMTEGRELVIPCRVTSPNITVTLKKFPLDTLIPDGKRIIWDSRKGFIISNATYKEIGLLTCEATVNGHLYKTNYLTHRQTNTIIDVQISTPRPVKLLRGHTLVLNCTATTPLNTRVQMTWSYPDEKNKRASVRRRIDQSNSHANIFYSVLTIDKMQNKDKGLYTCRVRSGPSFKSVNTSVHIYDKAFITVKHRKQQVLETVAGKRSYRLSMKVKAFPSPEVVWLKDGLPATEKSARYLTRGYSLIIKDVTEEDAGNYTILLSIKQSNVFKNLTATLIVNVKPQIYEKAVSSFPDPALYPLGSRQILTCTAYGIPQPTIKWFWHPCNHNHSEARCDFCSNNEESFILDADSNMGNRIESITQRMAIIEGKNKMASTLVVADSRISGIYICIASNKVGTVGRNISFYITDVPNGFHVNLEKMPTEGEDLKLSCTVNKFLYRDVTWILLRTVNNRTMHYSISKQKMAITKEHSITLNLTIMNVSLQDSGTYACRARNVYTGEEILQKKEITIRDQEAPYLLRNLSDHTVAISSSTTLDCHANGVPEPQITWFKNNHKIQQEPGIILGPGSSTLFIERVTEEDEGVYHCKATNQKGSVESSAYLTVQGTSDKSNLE

relative binding affinity (ratio to native VEGF 165) [fold] | Binder
14000 | B1

Molecular target: KDR Receptor (RIA of Example 11) (UniProt P35968 20-764, limits assumed)
Test: RIA, essentially as in Muller et al. 1997

KDR Receptor (RIA of Example 11), sequence (P35968 20-764 limits assumed): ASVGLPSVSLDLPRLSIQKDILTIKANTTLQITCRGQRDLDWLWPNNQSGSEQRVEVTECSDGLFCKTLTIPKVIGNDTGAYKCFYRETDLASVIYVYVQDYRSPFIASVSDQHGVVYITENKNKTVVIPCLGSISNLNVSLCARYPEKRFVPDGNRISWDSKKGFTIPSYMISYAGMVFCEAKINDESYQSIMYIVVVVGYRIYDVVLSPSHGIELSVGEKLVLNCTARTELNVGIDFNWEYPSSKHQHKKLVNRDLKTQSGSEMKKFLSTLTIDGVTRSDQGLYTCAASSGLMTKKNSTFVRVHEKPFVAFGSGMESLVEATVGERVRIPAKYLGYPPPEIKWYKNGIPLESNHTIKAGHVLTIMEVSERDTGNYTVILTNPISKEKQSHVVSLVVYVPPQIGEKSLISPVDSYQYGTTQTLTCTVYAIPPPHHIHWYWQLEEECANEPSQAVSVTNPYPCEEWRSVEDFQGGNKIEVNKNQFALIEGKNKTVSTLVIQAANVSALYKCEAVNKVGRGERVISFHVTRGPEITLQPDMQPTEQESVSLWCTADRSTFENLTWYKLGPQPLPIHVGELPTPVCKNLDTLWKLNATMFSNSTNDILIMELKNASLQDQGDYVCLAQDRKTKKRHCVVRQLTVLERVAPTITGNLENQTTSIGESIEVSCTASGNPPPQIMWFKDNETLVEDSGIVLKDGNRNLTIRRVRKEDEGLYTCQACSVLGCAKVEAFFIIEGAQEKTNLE

relative binding affinity (ratio to native VEGF 165) [fold] | Binder
20 | B1

Molecular target: T1, KDR (1-3) (UniProt P35968 20-327, limits assumed)
T1 construct: domain: KDR (1-3); Soluble KDR (1-3) at 1 ug/ml, captured on anti-KDR antibody MAKD5; also called KDR (1-3) monomer
Test: competition ELISA: displacement of biotinylated native VEGF (8-109) from KDR (1-3)
Protocol: (§1) Aliquots of this mixture (100 μl) were added to the precoated microtiter wells and the plate was incubated for 1 hour at room temperature.
(§2) The wells were then incubated with 3,3′,5,5′-tetramethyl benzidine (0.2 gram/liter; Kirkegaard & Perry Laboratories, Gaithersburg, Md.) for about 10 minutes at room temperature. Absorbance was read at 450 nm on a Vmax plate reader (Molecular Devices, Menlo Park, Calif.).
(§3) Titration curves were fit with a four-parameter nonlinear regression curve-fitting program (KaleidaGraph, Synergy Software, Reading, Pa.).

T1 sequence (P35968 20-327 limits assumed): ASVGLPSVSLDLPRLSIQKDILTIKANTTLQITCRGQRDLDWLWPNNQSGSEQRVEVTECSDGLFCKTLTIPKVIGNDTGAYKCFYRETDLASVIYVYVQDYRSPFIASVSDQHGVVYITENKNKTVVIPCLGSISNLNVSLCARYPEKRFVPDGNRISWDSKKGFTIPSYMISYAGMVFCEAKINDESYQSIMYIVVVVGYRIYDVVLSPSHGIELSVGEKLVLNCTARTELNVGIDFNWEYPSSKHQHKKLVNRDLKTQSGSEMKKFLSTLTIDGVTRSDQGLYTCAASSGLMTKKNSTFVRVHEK

relative binding affinity (ratio to native VEGF (8-109)) [fold] | Binder
1 | B1
7 | B4
10 | B5
0.5 | B6
0.5 | B7
0.5 | B8
0.6 | B9
1 | B10
4 | B11
2 | B12
3 | B13
3 | B14
4 | B15
0.4 | B16
23 | B17
1 | B2
2 | B18
0.5 | B19
2 | B20
14 | B21
11 | B22
1 | B3

Molecular target: T1, KDR (1-3)
Test: competition ELISA: displacement of biotinylated native VEGF (8-109) from KDR (1-3); concentration at midpoint absorbance
Protocol: as §1, §2, §3

IC50 [nM] | Binder
7 | B4

Molecular target: T2, Flt-IgG (a chimeric Flt-human Fc molecule) (human, UniProt P17948 27-758, limits assumed)
T2 construct: not shown: human IgG Fc
Test: competition ELISA: displacement of biotinylated native VEGF from Flt-IgG
Protocol: The wells were filled with 100 μl of a solution containing Flt-IgG (a chimeric Flt-human Fc molecule) at 50 ng/ml in assay buffer (0.5% BSA, 0.05% Tween 20 in PBS). The wells were incubated at room temperature for 1 hour and then washed three times in wash buffer (0.05% Tween 20 in PBS).
Aliquots of the mixture (100 μl) were added to the precoated microtiter wells and the plate was incubated for 2 hours at room temperature. […] The wells were then incubated with […] (0.2 g/liter, Kirkegaard & Perry Laboratories, Gaithersburg, Md.) for about 10 minutes at room temperature. Absorbance was read at 450 nm on a Vmax plate reader (Molecular Devices, Menlo Park, Calif.).
as §3

T2 sequence (P17948 27-758 limits assumed, change not shown): as the sequence (P17948 27-758 limits assumed) above

relative binding affinity (ratio to native VEGF (8-109)) [fold] | Binder
6000 | B1
300 | B8
200 | B2
400 | B3

Molecular target: KDR receptor on human umbilical vein endothelial cells (HUVEC) (human, UniProt P35968 20-1356)
Test: cell-based or functional assay

KDR receptor on human umbilical vein endothelial cells (HUVEC), sequence (P35968 20-1356): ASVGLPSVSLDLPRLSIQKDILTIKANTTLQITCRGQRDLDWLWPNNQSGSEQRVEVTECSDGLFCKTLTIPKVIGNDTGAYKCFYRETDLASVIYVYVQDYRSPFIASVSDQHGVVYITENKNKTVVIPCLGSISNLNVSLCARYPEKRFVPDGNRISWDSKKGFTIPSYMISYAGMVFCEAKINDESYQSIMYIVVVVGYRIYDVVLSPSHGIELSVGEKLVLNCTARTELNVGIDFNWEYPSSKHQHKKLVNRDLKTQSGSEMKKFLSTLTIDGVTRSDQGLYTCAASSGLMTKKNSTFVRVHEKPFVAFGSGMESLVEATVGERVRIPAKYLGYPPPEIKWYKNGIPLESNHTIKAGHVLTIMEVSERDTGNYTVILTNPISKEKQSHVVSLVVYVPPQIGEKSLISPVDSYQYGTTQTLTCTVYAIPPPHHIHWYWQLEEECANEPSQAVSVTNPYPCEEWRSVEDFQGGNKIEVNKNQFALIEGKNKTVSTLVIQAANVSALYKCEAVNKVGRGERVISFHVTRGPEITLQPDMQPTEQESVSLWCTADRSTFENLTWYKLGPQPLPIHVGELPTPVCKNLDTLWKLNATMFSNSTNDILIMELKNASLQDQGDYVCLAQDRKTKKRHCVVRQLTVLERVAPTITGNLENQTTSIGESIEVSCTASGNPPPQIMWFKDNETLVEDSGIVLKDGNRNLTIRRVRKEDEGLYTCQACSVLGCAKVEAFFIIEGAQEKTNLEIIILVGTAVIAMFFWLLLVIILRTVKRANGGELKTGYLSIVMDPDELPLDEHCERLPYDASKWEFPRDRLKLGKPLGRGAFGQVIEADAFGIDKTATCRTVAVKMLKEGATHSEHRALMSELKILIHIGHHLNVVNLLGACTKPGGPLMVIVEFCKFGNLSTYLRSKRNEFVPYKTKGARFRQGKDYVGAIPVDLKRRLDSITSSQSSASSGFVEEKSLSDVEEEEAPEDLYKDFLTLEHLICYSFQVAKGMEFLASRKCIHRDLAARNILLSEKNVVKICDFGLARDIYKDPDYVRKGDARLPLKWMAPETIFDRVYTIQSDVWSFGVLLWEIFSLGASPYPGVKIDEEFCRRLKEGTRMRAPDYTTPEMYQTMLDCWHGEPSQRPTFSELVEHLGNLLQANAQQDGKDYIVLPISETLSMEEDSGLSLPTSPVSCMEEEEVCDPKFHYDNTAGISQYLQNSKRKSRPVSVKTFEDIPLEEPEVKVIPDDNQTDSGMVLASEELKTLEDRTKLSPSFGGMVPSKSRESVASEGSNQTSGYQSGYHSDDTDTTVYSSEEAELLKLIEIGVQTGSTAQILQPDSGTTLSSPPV

Endothelial Cell Proliferation Activity (HUVEC), ratio to native VEGF (8-109) [fold] | Binder
0.2 | B1
1 | B10
1 | B19

Molecular target: T1, KDR (1-3)
Test: competition ELISA (Example 7): serially diluted unlabelled native VEGF (8-109) incubated with biotinylated native VEGF (8-109) (84 nM) and KDR (1-3) (1 ug/ml), complex captured on anti-KDR antibody MAKD5, detected with peroxidase-streptavidin, OD 450
Protocol: as §1, §2, §3

IC50 (read off the curve) [nM] | Binder
~2 | B23
